Data as given in patent publication US20260009052, “CAS12 PROTEINS AND USES THEREOF” (GUANGZHOU REFORGENE MEDICINE CO., LTD., published 2026).
Residue numbers refer to the chain shown, from its start.

Columns and labels:
C12-279 D352R = target: T1, C12-279 D352R (synthetic construct, D352R); experiment: cell_activity; PAM TTG; +/-0.22
T1 chain: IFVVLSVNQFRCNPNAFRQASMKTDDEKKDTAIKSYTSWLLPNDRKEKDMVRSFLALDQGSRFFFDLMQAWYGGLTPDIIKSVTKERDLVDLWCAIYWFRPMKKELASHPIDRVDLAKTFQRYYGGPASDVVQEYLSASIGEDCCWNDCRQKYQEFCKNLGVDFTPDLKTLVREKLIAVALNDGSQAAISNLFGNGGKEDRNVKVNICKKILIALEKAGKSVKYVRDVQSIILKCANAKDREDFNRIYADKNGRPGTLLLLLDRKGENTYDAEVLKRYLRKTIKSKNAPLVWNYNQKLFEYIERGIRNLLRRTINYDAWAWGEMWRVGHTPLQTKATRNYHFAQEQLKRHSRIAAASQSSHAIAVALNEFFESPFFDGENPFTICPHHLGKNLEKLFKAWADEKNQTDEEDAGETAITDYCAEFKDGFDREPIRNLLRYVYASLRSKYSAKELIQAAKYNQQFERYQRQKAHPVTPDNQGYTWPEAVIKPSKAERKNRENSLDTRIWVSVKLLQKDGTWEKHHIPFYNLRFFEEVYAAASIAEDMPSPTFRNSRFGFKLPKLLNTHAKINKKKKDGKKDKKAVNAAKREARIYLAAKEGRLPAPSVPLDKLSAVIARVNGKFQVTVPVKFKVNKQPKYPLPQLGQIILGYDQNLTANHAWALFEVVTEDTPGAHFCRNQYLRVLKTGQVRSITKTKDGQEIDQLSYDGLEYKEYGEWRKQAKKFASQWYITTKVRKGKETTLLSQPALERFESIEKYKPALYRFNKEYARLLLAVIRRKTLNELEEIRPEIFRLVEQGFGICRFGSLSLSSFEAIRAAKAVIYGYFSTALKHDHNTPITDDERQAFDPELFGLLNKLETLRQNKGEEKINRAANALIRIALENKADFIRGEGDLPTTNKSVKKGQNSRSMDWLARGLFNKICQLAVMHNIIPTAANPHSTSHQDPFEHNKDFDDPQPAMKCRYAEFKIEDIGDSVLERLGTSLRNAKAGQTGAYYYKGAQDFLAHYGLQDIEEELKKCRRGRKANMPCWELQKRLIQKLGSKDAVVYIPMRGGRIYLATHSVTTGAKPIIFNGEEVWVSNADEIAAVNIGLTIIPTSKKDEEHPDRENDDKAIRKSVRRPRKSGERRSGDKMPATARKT
Method: Transfection: transfection was performed 12-14 h after plating. 1.5 μL PEI (Yeasen Biotechnology, 40815ES03, Polyethylenimine Linear (PEI) MW25000) and 500 ng mutation clone plasmid were added to 100 μL Opti-MEM per well of the 24-well plate, mixed, and added to the NAAN cell line for cell transfection after placing at room temperature for 20 min. After overnight transfection, a fresh culture medium was replaced, and the culture was continued for 72 h, followed by flow cytometry. Editing efficiencies of different mutant clones were characterized by the proportion of GFP-positive cells.
Editing efficiency of some selected mutants was tested in Reporter3 cell line using the same manner as described for the NAAN reporter system, except that the cell line was changed from NAAN cell line to Reporter3 cell line.

C12-279 = target: T2, C12-279 (synthetic construct); experiment: cell_activity; PAM TTG; GFP reporter; settings: tags: NLS
T2 chain: T1 chain with R352D

B1: C12-279 Reporter3 sgRNA ; Reporter3 target (ssRNA ; dsDNA)
RNA: GUAAUGCGUCUCCCAUUGACGCCUCACCUCGCGACGCAAUGAUG
DNA 1: CTCACCTCGCGACGCAATGATG
DNA 2: CATCATTGCGTCGCGAGGTGAG
- binding signal (C12-279 D352R): 1.18 fold of C12-279
- binding signal (C12-279): 1 fold of C12-279
